According to the supplement of paper PMC10724198:
± gives the standard deviation of the averaged measurements.

Legend:
Saccharomyces cerevisiae [1] = experiment: protein stability index of tFT-peptide fusion (C-terminal peptide) (PSI (0-1 scale)); higher = more stable (slower turnover)
Description: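 MPS profiling in S. cerevisiae of the tFT-X12 degron library: putative degron peptides plus stable controls, 12 aa, fused to the C-terminus of a sfGFP-mCherry timer. Cells are FACS-sorted into 8 mCherry/sfGFP bins and deep-sequenced. PSI runs from 0 (unstable) to 1 (stable). Backgrounds are wild type, das1Δ and doa10Δ at 30 °C, and wild type, das1Δ, cdc34-1 and cdc53-1 at 37 °C; 2-3 technical replicates each.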

Saccharomyces cerevisiae [2] = experiment: as above; conditions: genetic background: wild type; temperature: 30 C
[3] = genetic background: cdc34-1, temperature: 37 C
[4] = genetic background: cdc53-1, temperature: 37 C
[5] = genetic background: das1 deletion, temperature: 30 C
[6] = genetic background: das1 deletion, temperature: 37 C
[7] = genetic background: doa10 deletion, temperature: 30 C
[8] = genetic background: wild type, temperature: 30 C
[9] = genetic background: wild type, temperature: 37 C
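Note: PSI is a weighted mean of sequencing reads over stability bins, variants kept only with over 10 reads, mCherry proximal and sfGFP distal, peptide attached via GGGS linker.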

Sequence: GEAYVYLFVYSC
- protein stability index (Saccharomyces cerevisiae [1]; [3]): 0.4329 ± 0.0022
- protein stability index (Saccharomyces cerevisiae [1]; [4]): 0.467 ± 0.0051
- protein stability index (Saccharomyces cerevisiae [1]; [5]): 0.276 ± 0.036
- protein stability index (Saccharomyces cerevisiae [1]; [6]): 0.541 ± 0.019
- protein stability index (Saccharomyces cerevisiae [1]; [7]): 0.16 ± 0.012
- protein stability index (Saccharomyces cerevisiae [1]; [8]): 0.173 ± 0.017
- protein stability index (Saccharomyces cerevisiae [1]; [9]): 0.387 ± 0.0098
- protein stability index (Saccharomyces cerevisiae [2]): 0.25 ± 0.0051

Sequence: FFLFCWFVPRFS
- protein stability index (Saccharomyces cerevisiae [1]; [3]): 0.454 ± 0.0056
- protein stability index (Saccharomyces cerevisiae [1]; [4]): 0.512 ± 0.0079
- protein stability index (Saccharomyces cerevisiae [1]; [5]): 0.379 ± 0.027
- protein stability index (Saccharomyces cerevisiae [1]; [6]): 0.553 ± 0.012
- protein stability index (Saccharomyces cerevisiae [1]; [7]): 0.349 ± 0.014
- protein stability index (Saccharomyces cerevisiae [1]; [8]): 0.351 ± 0.027
- protein stability index (Saccharomyces cerevisiae [1]; [9]): 0.498 ± 0.016
- protein stability index (Saccharomyces cerevisiae [2]): 0.435 ± 0.018

Sequence: FFFFLFRSIFLS
- protein stability index (Saccharomyces cerevisiae [1]; [3]): 0.146 ± 0.12
- protein stability index (Saccharomyces cerevisiae [1]; [4]): 0.124 ± 0.013
- protein stability index (Saccharomyces cerevisiae [1]; [5]): 0.293 ± 0.05
- protein stability index (Saccharomyces cerevisiae [1]; [6]): 0.394 ± 0.094
- protein stability index (Saccharomyces cerevisiae [1]; [7]): 0.179 ± 0.0022
- protein stability index (Saccharomyces cerevisiae [1]; [8]): 0.118 ± 0.012
- protein stability index (Saccharomyces cerevisiae [1]; [9]): 0.138 ± 0.011
- protein stability index (Saccharomyces cerevisiae [2]): 0.152 ± 0.0068

Sequence: AVVLLFIPRKLL
- protein stability index (Saccharomyces cerevisiae [1]; [3]): 0.472 ± 0.042
- protein stability index (Saccharomyces cerevisiae [1]; [4]): 0.53 ± 0.034
- protein stability index (Saccharomyces cerevisiae [1]; [5]): 0.39 ± 0.029
- protein stability index (Saccharomyces cerevisiae [1]; [6]): 0.568 ± 0.014
- protein stability index (Saccharomyces cerevisiae [1]; [7]): 0.148 ± 0.011
- protein stability index (Saccharomyces cerevisiae [1]; [8]): 0.173 ± 0.021
- protein stability index (Saccharomyces cerevisiae [1]; [9]): 0.293 ± 0.015
- protein stability index (Saccharomyces cerevisiae [2]): 0.245 ± 0.079

Sequence: DRLAVLVLLRVY
- protein stability index (Saccharomyces cerevisiae [1]; [3]): 0.0219 ± 0.0022
- protein stability index (Saccharomyces cerevisiae [1]; [4]): 0.0458 ± 0.013
- protein stability index (Saccharomyces cerevisiae [1]; [5]): 0.137 ± 0.041
- protein stability index (Saccharomyces cerevisiae [1]; [6]): 0.182 ± 0.0035
- protein stability index (Saccharomyces cerevisiae [1]; [7]): 0.0574 ± 0.01
- protein stability index (Saccharomyces cerevisiae [1]; [8]): 0.0636 ± 0.018
- protein stability index (Saccharomyces cerevisiae [1]; [9]): 0.0571 ± 0.016
- protein stability index (Saccharomyces cerevisiae [2]): 0.109 ± 0.017

Sequence: SIFSIRRQISFS
- protein stability index (Saccharomyces cerevisiae [1]; [3]): 0.662 ± 0.0077
- protein stability index (Saccharomyces cerevisiae [1]; [4]): 0.743 ± 0.009
- protein stability index (Saccharomyces cerevisiae [1]; [5]): 0.653 ± 0.017
- protein stability index (Saccharomyces cerevisiae [1]; [6]): 0.724 ± 0.012
- protein stability index (Saccharomyces cerevisiae [1]; [7]): 0.327 ± 0.0085
- protein stability index (Saccharomyces cerevisiae [1]; [8]): 0.346 ± 0.014
- protein stability index (Saccharomyces cerevisiae [1]; [9]): 0.5729 ± 0.0022
- protein stability index (Saccharomyces cerevisiae [2]): 0.418 ± 0.015

Sequence: LLLAMLLWVSTM
- protein stability index (Saccharomyces cerevisiae [1]; [3]): 0.422 ± 0.0061
- protein stability index (Saccharomyces cerevisiae [1]; [4]): 0.361 ± 0.11
- protein stability index (Saccharomyces cerevisiae [1]; [5]): 0.305 ± 0.034
- protein stability index (Saccharomyces cerevisiae [1]; [6]): 0.483 ± 0.02
- protein stability index (Saccharomyces cerevisiae [1]; [7]): 0.2826 ± 0.0026
- protein stability index (Saccharomyces cerevisiae [1]; [8]): 0.306 ± 0.021
- protein stability index (Saccharomyces cerevisiae [1]; [9]): 0.455 ± 0.038
- protein stability index (Saccharomyces cerevisiae [2]): 0.388 ± 0.0058

Sequence: VILMFELFGVRI
- protein stability index (Saccharomyces cerevisiae [1]; [3]): 0.324 ± 0.04
- protein stability index (Saccharomyces cerevisiae [1]; [4]): 0.457 ± 0.019
- protein stability index (Saccharomyces cerevisiae [1]; [5]): 0.355 ± 0.058
- protein stability index (Saccharomyces cerevisiae [1]; [6]): 0.4304 ± 0.0029
- protein stability index (Saccharomyces cerevisiae [1]; [7]): 0.327 ± 0.019
- protein stability index (Saccharomyces cerevisiae [1]; [8]): 0.313 ± 0.051
- protein stability index (Saccharomyces cerevisiae [1]; [9]): 0.422 ± 0.054
- protein stability index (Saccharomyces cerevisiae [2]): 0.331 ± 0.029

Sequence: VVGITIMVFIIT
- protein stability index (Saccharomyces cerevisiae [1]; [3]): 0.138 ± 0.0028
- protein stability index (Saccharomyces cerevisiae [1]; [4]): 0.195 ± 0.065
- protein stability index (Saccharomyces cerevisiae [1]; [5]): 0.184 ± 0.045
- protein stability index (Saccharomyces cerevisiae [1]; [6]): 0.312 ± 0.0043
- protein stability index (Saccharomyces cerevisiae [1]; [7]): 0.15 ± 0.018
- protein stability index (Saccharomyces cerevisiae [1]; [8]): 0.185 ± 0.027
- protein stability index (Saccharomyces cerevisiae [1]; [9]): 0.326 ± 0.046
- protein stability index (Saccharomyces cerevisiae [2]): 0.333 ± 0.069

Sequence: FSARPFLYSFRP
- protein stability index (Saccharomyces cerevisiae [1]; [3]): 0.694 ± 0.024
- protein stability index (Saccharomyces cerevisiae [1]; [4]): 0.743 ± 0.0082
- protein stability index (Saccharomyces cerevisiae [1]; [5]): 0.667 ± 0.025
- protein stability index (Saccharomyces cerevisiae [1]; [6]): 0.7416 ± 0.0052
- protein stability index (Saccharomyces cerevisiae [1]; [7]): 0.653 ± 0.037
- protein stability index (Saccharomyces cerevisiae [1]; [8]): 0.654 ± 0.0083
- protein stability index (Saccharomyces cerevisiae [1]; [9]): 0.711 ± 0.0089
- protein stability index (Saccharomyces cerevisiae [2]): 0.028 ± 0.0092

Sequence: GRHRRYLLLPVH
- protein stability index (Saccharomyces cerevisiae [1]; [3]): 0.487 ± 0.029
- protein stability index (Saccharomyces cerevisiae [1]; [4]): 0.5232 ± 0.0027
- protein stability index (Saccharomyces cerevisiae [1]; [5]): 0.369 ± 0.028
- protein stability index (Saccharomyces cerevisiae [1]; [6]): 0.541 ± 0.0057
- protein stability index (Saccharomyces cerevisiae [1]; [7]): 0.308 ± 0.0055
- protein stability index (Saccharomyces cerevisiae [1]; [8]): 0.35 ± 0.019
- protein stability index (Saccharomyces cerevisiae [1]; [9]): 0.485 ± 0.013
- protein stability index (Saccharomyces cerevisiae [2]): 0.419 ± 0.015

Sequence: SDVHLKSEALAA
- protein stability index (Saccharomyces cerevisiae [1]; [3]): 0.682 ± 0.024
- protein stability index (Saccharomyces cerevisiae [1]; [4]): 0.69 ± 0.0095
- protein stability index (Saccharomyces cerevisiae [1]; [5]): 0.569 ± 0.025
- protein stability index (Saccharomyces cerevisiae [1]; [6]): 0.656 ± 0.013
- protein stability index (Saccharomyces cerevisiae [1]; [7]): 0.5543 ± 0.0018
- protein stability index (Saccharomyces cerevisiae [1]; [8]): 0.568 ± 0.02
- protein stability index (Saccharomyces cerevisiae [1]; [9]): 0.663 ± 0.024
- protein stability index (Saccharomyces cerevisiae [2]): 0.542 ± 0.11

Sequence: LLLFLLLPPFPF
- protein stability index (Saccharomyces cerevisiae [1]; [3]): 0.543 ± 0.034
- protein stability index (Saccharomyces cerevisiae [1]; [4]): 0.59 ± 0.006
- protein stability index (Saccharomyces cerevisiae [1]; [5]): 0.449 ± 0.025
- protein stability index (Saccharomyces cerevisiae [1]; [6]): 0.604 ± 0.026
- protein stability index (Saccharomyces cerevisiae [1]; [7]): 0.437 ± 0.028
- protein stability index (Saccharomyces cerevisiae [1]; [8]): 0.445 ± 0.019
- protein stability index (Saccharomyces cerevisiae [1]; [9]): 0.57 ± 0.0068
- protein stability index (Saccharomyces cerevisiae [2]): 0.504 ± 0.025

Sequence: CVLFLGQILCVV
- protein stability index (Saccharomyces cerevisiae [1]; [3]): 0.266 ± 0.018
- protein stability index (Saccharomyces cerevisiae [1]; [4]): 0.328 ± 0.01
- protein stability index (Saccharomyces cerevisiae [1]; [5]): 0.28 ± 0.033
- protein stability index (Saccharomyces cerevisiae [1]; [6]): 0.3857 ± 0.00079
- protein stability index (Saccharomyces cerevisiae [1]; [7]): 0.236 ± 0.011
- protein stability index (Saccharomyces cerevisiae [1]; [8]): 0.276 ± 0.017
- protein stability index (Saccharomyces cerevisiae [1]; [9]): 0.339 ± 0.026
- protein stability index (Saccharomyces cerevisiae [2]): 0.332 ± 0.0076

Sequence: WDSCVGRRGIVA
- protein stability index (Saccharomyces cerevisiae [1]; [3]): 0.559 ± 0.025
- protein stability index (Saccharomyces cerevisiae [1]; [4]): 0.63 ± 0.021
- protein stability index (Saccharomyces cerevisiae [1]; [5]): 0.402 ± 0.035
- protein stability index (Saccharomyces cerevisiae [1]; [6]): 0.62 ± 0.025
- protein stability index (Saccharomyces cerevisiae [1]; [7]): 0.388 ± 0.013
- protein stability index (Saccharomyces cerevisiae [1]; [8]): 0.42 ± 0.021
- protein stability index (Saccharomyces cerevisiae [1]; [9]): 0.6038 ± 0.0016
- protein stability index (Saccharomyces cerevisiae [2]): 0.4869 ± 0.0015

Sequence: LSLSLQVVVFSM
- protein stability index (Saccharomyces cerevisiae [1]; [3]): 0.438 ± 0.034
- protein stability index (Saccharomyces cerevisiae [1]; [4]): 0.497 ± 0.022
- protein stability index (Saccharomyces cerevisiae [1]; [5]): 0.317 ± 0.024
- protein stability index (Saccharomyces cerevisiae [1]; [6]): 0.484 ± 0.0062
- protein stability index (Saccharomyces cerevisiae [1]; [7]): 0.3203 ± 0.00038
- protein stability index (Saccharomyces cerevisiae [1]; [8]): 0.322 ± 0.021
- protein stability index (Saccharomyces cerevisiae [1]; [9]): 0.457 ± 0.022
- protein stability index (Saccharomyces cerevisiae [2]): 0.467 ± 0.022

Sequence: SVGVVWVLSVEG
- protein stability index (Saccharomyces cerevisiae [1]; [3]): 0.444 ± 0.042
- protein stability index (Saccharomyces cerevisiae [1]; [4]): 0.517 ± 0.015
- protein stability index (Saccharomyces cerevisiae [1]; [5]): 0.33 ± 0.031
- protein stability index (Saccharomyces cerevisiae [1]; [6]): 0.5415 ± 0.0018
- protein stability index (Saccharomyces cerevisiae [1]; [7]): 0.308 ± 0.0081
- protein stability index (Saccharomyces cerevisiae [1]; [8]): 0.343 ± 0.018
- protein stability index (Saccharomyces cerevisiae [1]; [9]): 0.503 ± 0.0036
- protein stability index (Saccharomyces cerevisiae [2]): 0.454 ± 0.0074

Sequence: QFLSLSLPFALF
- protein stability index (Saccharomyces cerevisiae [1]; [3]): 0.7057 ± 0.0026
- protein stability index (Saccharomyces cerevisiae [1]; [4]): 0.763 ± 0.014
- protein stability index (Saccharomyces cerevisiae [1]; [5]): 0.64 ± 0.029
- protein stability index (Saccharomyces cerevisiae [1]; [6]): 0.748 ± 0.054
- protein stability index (Saccharomyces cerevisiae [1]; [7]): 0.428 ± 0.041
- protein stability index (Saccharomyces cerevisiae [1]; [8]): 0.45 ± 0.019
- protein stability index (Saccharomyces cerevisiae [1]; [9]): 0.636 ± 0.052
- protein stability index (Saccharomyces cerevisiae [2]): 0.524 ± 0.036

Sequence: VWWGVGVWLLVG
- protein stability index (Saccharomyces cerevisiae [1]; [3]): 0.104 ± 0.025
- protein stability index (Saccharomyces cerevisiae [1]; [4]): 0.176 ± 0.02
- protein stability index (Saccharomyces cerevisiae [1]; [5]): 0.242 ± 0.015
- protein stability index (Saccharomyces cerevisiae [1]; [6]): 0.369 ± 0.011
- protein stability index (Saccharomyces cerevisiae [1]; [7]): 0.0694 ± 0.016
- protein stability index (Saccharomyces cerevisiae [1]; [8]): 0.0673 ± 0.018
- protein stability index (Saccharomyces cerevisiae [1]; [9]): 0.0755 ± 0.036
- protein stability index (Saccharomyces cerevisiae [2]): 0.147 ± 0.04

Sequence: LFSAFFPLLFLS
- protein stability index (Saccharomyces cerevisiae [1]; [3]): 0.291 ± 0.022
- protein stability index (Saccharomyces cerevisiae [1]; [4]): 0.353 ± 0.0036
- protein stability index (Saccharomyces cerevisiae [1]; [5]): 0.436 ± 0.044
- protein stability index (Saccharomyces cerevisiae [1]; [6]): 0.572 ± 0.02
- protein stability index (Saccharomyces cerevisiae [1]; [7]): 0.107 ± 0.014
- protein stability index (Saccharomyces cerevisiae [1]; [8]): 0.0848 ± 0.0096
- protein stability index (Saccharomyces cerevisiae [1]; [9]): 0.0875 ± 0.00095
- protein stability index (Saccharomyces cerevisiae [2]): 0.112 ± 0.013
